Source: the supplement of paper PMC6757056
± gives the standard deviation of the averaged measurements.

B1: library; a variant is named by its letters at N, in order (parent)
chain: GCUGUCACCGAGAAACUGUGAAGUAUAUCUUAAACCUGGGCACUUAAAAGAUAUAUGGAGUUAGUAGUGCAACCUGCUCGGUCUGAUGAGUCCNNNNNNGGACGAAACAGC

How the values were obtained:
cyclic di-GMP [1] = variants of: B1; test: FACS-Seq fitted mean relative fluorescence mCherry/BFP without ligand (log10 relative fluorescence); HEK293T; ligand: cyclic di-GMP (c-di-GMP-II aptamer); higher = higher reporter protein expression; settings: ligand present: no
Summary of the method: (§1)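 After lentiviral transduction, HEK293T library cells bearing an mCherry ribozyme-switch reporter and an EF1α-BFP marker were enriched. They were then held for 48 h with or without ligand and sorted by mCherry/BFP into 6 bins, and each bin's genomic DNA was PCR-amplified, barcoded and MiSeq-sequenced. Fluorescence is expressed as a normalized fitted mean: the normal mean of log10(mCherry/BFP) bin counts, scaled to five spiked-in control ribozymes.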

cyclic di-GMP [2] = variants of: B1; test: normalized RNA/DNA level without ligand (relative to sTRSVctl = 100) (log10 (% of sTRSVctl)); HEK293T; ligand: cyclic di-GMP (c-di-GMP-II aptamer); higher = less ribozyme self-cleavage, higher mRNA level; settings: reporter: mCherry (pCS4076), ligand present: no
Summary of the method: (§2)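 HEK293T cells received ligand, where used, 1 h before being transfected with 4 µg per 6-well well of library plasmids encoding reporter-linked ribozyme switches. After 72 h, RNA was extracted with EDTA and sequenced. RNA level was derived from RNA reads per DNA read, normalized to a spiked-in non-cleaving sequence or the top sequences, then scaled and log-transformed. Values were ×100 then log10, the top set was 25 sequences, and the minimum was 100 DNA reads.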

cyclic di-GMP [3] = variants of: B1; test: FACS-Seq fitted mean relative fluorescence mCherry/BFP with ligand (log10 relative fluorescence); HEK293T; ligand: cyclic di-GMP (c-di-GMP-II aptamer); ligand concentration (+) FACS-Seq: 1 mM; higher = higher reporter protein expression; settings: ligand present: yes
Summary of the method: as §1

cyclic di-GMP [4] = variants of: B1; test: normalized RNA/DNA level with ligand (relative to sTRSVctl = 100) (log10 (% of sTRSVctl)); HEK293T; ligand: cyclic di-GMP (c-di-GMP-II aptamer); ligand concentration (+) RNA-Seq: 1 mM; higher = less ribozyme self-cleavage, higher mRNA level; settings: reporter: mCherry (pCS4076), ligand present: yes
Summary of the method: as §2

Variant | FACS-Seq fitted mean (log10) (cyclic di-GMP [1]) | normalized RNA/DNA level without ligand (log10) (cyclic di-GMP [2]) | FACS-Seq fitted mean (log10) (cyclic di-GMP [3]) | normalized RNA/DNA level with ligand (log10) (cyclic di-GMP [4])
AGACAA | -0.193 ± 0.061 | 1.47 ± 0.057 | 0.171 ± 0.019 | 1.65 ± 0.1
UGCAAU | -0.335 ± 0.12 | 1.66 ± 0.045 | -0.151 ± 0.047 | 1.81 ± 0.089
AGAAUU | 0.202 ± 0.13 | 1.65 ± 0.072 | 0.346 ± 0.074 | 1.8 ± 0.12
AGAAUC | -0.291 ± 0.023 | 1.63 ± 0.06 | -0.0843 ± 0.044 | 1.78 ± 0.073
AGAAUG | -0.367 ± 0.045 | 1.48 ± 0.12 | -0.126 ± 0.14 | 1.68 ± 0.043
CGACUG | -0.0298 ± 0.017 | 1.703 ± 0.0006 | 0.297 ± 0.061 | 1.83 ± 0.074
CGACUA | -0.6395 ± 0.004 | 1.35 ± 0.17 | -0.239 ± 0.0063 | 1.48 ± 0.053
CGACAA | -0.57 ± 0.068 | 1.29 ± 0.15 | -0.273 ± 0.0065 | 1.54 ± 0.097
AGAUUA | -0.549 ± 0.084 | 1.49 ± 0.078 | -0.245 ± 0.019 | 1.69 ± 0.15
GGACCC | 0.129 ± 0.17 | 1.86 ± 0.022 | 0.32 ± 0.061 | 1.93 ± 0.086
AGAAAG | -0.223 ± 0.077 | 1.5 ± 0.058 | 0.0417 ± 0.031 | 1.69 ± 0.1
AGAAAC | 0.0659 ± 0.072 | 1.617 ± 0.0019 | 0.343 ± 0.052 | 1.8 ± 0.12
AGAAAA | -0.765 ± 0.013 | 1.42 ± 0.084 | -0.587 ± 0.043 | 1.61 ± 0.089
CGAAGA | -0.38091 ± 0.00015 | 1.37 ± 0.096 | -0.0195 ± 0.04 | 1.65 ± 0.075
UGAAAU | -0.0172 ± 0.1 | 1.66 ± 0.043 | 0.368 ± 0.014 | 1.84 ± 0.14
CGAAAC | -0.432 ± 0.051 | 1.62 ± 0.048 | -0.267 ± 0.02 | 1.77 ± 0.097
CGAAAA | -0.423 ± 0.02 | 1.26 ± 0.084 | -0.315 ± 0.07 | 1.47 ± 0.1
AGAGAA | -0.335 ± 0.073 | 1.33 ± 0.12 | -0.0362 ± 0.068 | 1.54 ± 0.1

Variant | FACS-Seq fitted mean (log10) (cyclic di-GMP [1]) | normalized RNA/DNA level without ligand (log10) (cyclic di-GMP [2]) | FACS-Seq fitted mean (log10) (cyclic di-GMP [3]) | normalized RNA/DNA level with ligand (log10) (cyclic di-GMP [4])
CGCAAU | -0.449 ± 0.027 | 1.45 ± 0.087 | -0.206 ± 0.045 | 1.61 ± 0.078
CGCAAA | -0.531 ± 0.011 | 1.26 ± 0.097 | -0.262 ± 0.015 | 1.47 ± 0.085
CGAAUA | -0.507 ± 0.0079 | 1.24 ± 0.091 | -0.209 ± 0.083 | 1.45 ± 0.086
CGAAUU | -0.504 ± 0.036 | 1.38 ± 0.11 | -0.238 ± 0.016 | 1.57 ± 0.088
GCUUAA | -0.0927 ± 0.12 | 1.56 ± 0.088 | 0.338 ± 0.039 | 1.7 ± 0.072
GCUUAG | -0.473 ± 0.076 | 1.638 ± 0.0094 | -0.165 ± 0.16 | 1.79 ± 0.069
GGAGGC | 0.132 ± 0.076 | 1.6 ± 0.065 | 0.234 ± 0.067 | 1.79 ± 0.072
ACUUUU | -0.0638 ± 0.052 | 1.6 ± 0.053 | 0.272 ± 0.091 | 1.8 ± 0.095
ACUUUA | -1.11 ± 0.037 | 1.59 ± 0.044 | -0.989 ± 0.12 | 1.76 ± 0.067
UGACUC | -0.0587 ± 0.12 | 1.726 ± 0.0085 | 0.268 ± 0.025 | 1.86 ± 0.12
AGAUGC | -0.7631 ± 0.0076 | 1.66 ± 0.056 | -0.47 ± 0.029 | 1.77 ± 0.12
AGAUGA | -0.545 ± 0.04 | 1.4 ± 0.13 | -0.336 ± 0.063 | 1.61 ± 0.14
AGAUAA | -0.905 ± 0.032 | 1.44 ± 0.11 | -0.444 ± 0.023 | 1.65 ± 0.11
AGACGU | -1.017 ± 0.0037 | 1.573 ± 0.012 | -0.759 ± 0.072 | 1.75 ± 0.13
AGACGC | -0.232 ± 0.099 | 1.65 ± 0.066 | -0.0488 ± 0.032 | 1.81 ± 0.098
AGACGA | -0.409 ± 0.019 | 1.54 ± 0.063 | -0.212 ± 0.013 | 1.73 ± 0.12
GCUUCA | -0.32 ± 0.093 | 1.668 ± 0.013 | 0.00326 ± 0.00018 | 1.81 ± 0.11
GCUUCU | -0.15612 ± 8.5e-05 | 1.74 ± 0.019 | 0.0598 ± 0.018 | 1.87 ± 0.11
